± gives the uncertainty stated by the source.

The source of these data is the supplement of paper PMC7877785.

The series in a line: self-splicing fitness, log relative to wild type (ln ratio); higher = more splicing; Tetrahymena group I intron in knt gene, E. coli kanamycin selection, DiMSum; sequences stand for … in CUCUCU…GGAGGGAAAAGUUAUCAGGCAUGCACCUGGUAGCUAGUCUUUAAACCAAUAGAUUGCAUCGGUUUAAAAGGCAAGACCGUCAAAUUGCGGGAAAGGGGUCAACAGCCGUUCAGUACCAAGUCUCAGGGGAAACUUUGAGAUGGCCUUGCAAAGGGUAUGGUAAUAAGCUGACGGACAUGGUCCUAACCACGCAGCCAAGUCCUAAGUCAACAGAUCUUCUGUUGAUAUGGAUGCAGUUCACAGACUAAAUGUCGGUCGGGGAAGAUGUAUUCUUCUCAUAAGAUAUAGUCGGACCUCUCCUUAAUGGGAGCUAGCGGAUGAAGUGAUGCAACACUGGAGCCGCUGGGAACUAAUUUGUAUGCGAAAGUAUAUUGAUUAGUUUUGGAGUACUCGUGGUCG
In a few lines:
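The eight P1ex-region nucleotides of an intron in the knt kanamycin-resistance gene on pET-22b(+) were all randomised and the library put into E. coli BL21(DE3). Six replicate transformations were grown overnight at 37°C or 30°C on LB agar with or without 25 μg/mL kanamycin, together with 100 μg/mL carbenicillin, 50 μM IPTG and 0.2% rhamnose. Colonies were pooled and amplicon-sequenced on an Illumina HiSeq 2500. Fitness from DiMSum is the error-weighted combination of wild-type-normalised replicate fold changes, kanamycin over none.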

On to AGUGAGCAAUAUUACGCCUA, for which the “self-splicing fitness (ln)” value is, setting by setting: (30 °C) -3 ± 0.3; (37 °C) -0.802 ± 0.18.
Taken in the same sequence, the figures for GGUGAGCAAUAUUACGUAAU were -1.71 ± 0.27 and -0.991 ± 0.31.
Taken in the same sequence, the figures for GCGUAGCAAUAUUACGUUUG were -3.14 ± 0.21 and -1.37 ± 0.15.
The matching figures for AUCUAGCAAUAUUACGGCUU: -0.0659 ± 0.1 and 0.305 ± 0.12.
On to UCGCAGCAAUAUUACGUUCA, for which the “self-splicing fitness (ln)” value by setting is: (30 °C) -0.883 ± 0.07; (37 °C) 0.0196 ± 0.064.
Taken in the same sequence, the figures for GCAGAGCAAUAUUACGAUUA were -2.28 ± 0.22 and 0.0469 ± 0.18.
The matching figures for ACCUAGCAAUAUUACGCACU: -0.127 ± 0.085 and 0.3 ± 0.12.
Taken in the same sequence, the figures for UUUUAGCAAUAUUACGAGAA were -0.897 ± 0.48 and -0.946 ± 0.19.
Consider UACGAGCAAUAUUACGCGGU, for which the “self-splicing fitness (ln)” value (30 °C) is -3.15 ± 0.2 and the “self-splicing fitness (ln)” value (37 °C) is -2.67 ± 0.26.
Taken in the same sequence, the figures for GGUUAGCAAUAUUACGCUGA were -3.14 ± 0.14 and -2.24 ± 0.13.
Taken in the same sequence, the figures for UCCAAGCAAUAUUACGGUUA were -0.451 ± 0.066 and 0.0448 ± 0.068.
CACCAGCAAUAUUACGGCCG: the “self-splicing fitness (ln)” value reads like this: (30 °C) 0.194 ± 0.066; (37 °C) 0.251 ± 0.087.
With GUCAAGCAAUAUUACGCGGA, the “self-splicing fitness (ln)” value is -2.98 ± 0.17 (30 °C) and -2.02 ± 0.16 (37 °C).
Consider CAAAAGCAAUAUUACGGACG, for which the “self-splicing fitness (ln)” value was -0.163 ± 0.059 (30 °C) and 0.223 ± 0.079 (37 °C).
In the case of ACAUAGCAAUAUUACGCGUU, the “self-splicing fitness (ln)” value reads like this: (30 °C) -3.55 ± 0.24; (37 °C) -2.39 ± 0.15.
In the case of GACUAGCAAUAUUACGUUUU, the “self-splicing fitness (ln)” value is, setting by setting: (30 °C) -2.43 ± 0.095; (37 °C) -1.42 ± 0.11.
Regarding AUCCAGCAAUAUUACGGUCC, the “self-splicing fitness (ln)” value reads like this: (30 °C) -1.39 ± 0.13; (37 °C) -0.176 ± 0.21.
The matching figures for UAAAAGCAAUAUUACGCAGU: -2.66 ± 0.16 and -1.3 ± 0.13.
The matching figures for CGGAAGCAAUAUUACGGACA: 0.389 ± 0.13 and -0.329 ± 0.15.
The matching figures for GCCCAGCAAUAUUACGUUGG: -3.22 ± 0.13 and -2.92 ± 0.15.
As to AGAAAGCAAUAUUACGCCUC, the “self-splicing fitness (ln)” value reads like this: (30 °C) -1.37 ± 0.17; (37 °C) -0.948 ± 0.23.
With CUCCAGCAAUAUUACGUUGC, the “self-splicing fitness (ln)” value was -3.98 ± 0.27 (30 °C) and -1.77 ± 0.15 (37 °C).
For CGCAAGCAAUAUUACGGAAA, the “self-splicing fitness (ln)” value runs as follows: (30 °C) -2.31 ± 0.33; (37 °C) -2.5 ± 0.2.
As to AGAGAGCAAUAUUACGGCUG, the “self-splicing fitness (ln)” value reads like this: (30 °C) -0.227 ± 0.24; (37 °C) -2.26 ± 0.49.
The matching figures for CGGUAGCAAUAUUACGAUCA: -0.493 ± 0.085 and 0.196 ± 0.12.
Taken in the same sequence, the figures for GGUCAGCAAUAUUACGAGGU were -1.01 ± 0.13 and -1.7 ± 0.22.
Taken in the same sequence, the figures for AUGCAGCAAUAUUACGUAGC were -3.81 ± 0.37 and -2.34 ± 0.24.
As for CAUAAGCAAUAUUACGCAUU, the “self-splicing fitness (ln)” value is, setting by setting: (30 °C) -3.5 ± 0.18; (37 °C) -1.35 ± 0.17.
Taken in the same sequence, the figures for CUUAAGCAAUAUUACGACGC were -3.04 ± 0.28 and -2.22 ± 0.4.
The matching figures for GUCCAGCAAUAUUACGCAGA: -3.39 ± 0.4 and -1.87 ± 0.22.
For the sequence GCUCAGCAAUAUUACGGGCG, the “self-splicing fitness (ln)” value is -1.61 ± 0.071 (30 °C) and -1.22 ± 0.085 (37 °C).
Take UGUUAGCAAUAUUACGAGCG: the “self-splicing fitness (ln)” value (30 °C) turned out to be 0.176 ± 0.095 and the “self-splicing fitness (ln)” value (37 °C) was -0.175 ± 0.12.
The matching figures for AUAAAGCAAUAUUACGACCC: 0.352 ± 0.21 and 0.804 ± 0.26.
The matching figures for UUGCAGCAAUAUUACGGUCA: 0.208 ± 0.12 and 0.556 ± 0.11.
Taken in the same sequence, the figures for UCGCAGCAAUAUUACGCGGU were -4.16 ± 0.24 and -2.41 ± 0.28.
Consider UAAUAGCAAUAUUACGUCGU, for which the “self-splicing fitness (ln)” value by setting is: (30 °C) -2.91 ± 0.34; (37 °C) -0.94 ± 0.23.
The matching figures for UGCCAGCAAUAUUACGGCUG: -3.47 ± 0.15 and -2.17 ± 0.16.
GCCUAGCAAUAUUACGCAGG: the “self-splicing fitness (ln)” value was -4.18 ± 0.28 (30 °C) and -2.44 ± 0.25 (37 °C).
The matching figures for ACCAAGCAAUAUUACGAUGG: -1.76 ± 0.076 and -0.995 ± 0.12.
Taken in the same sequence, the figures for GACCAGCAAUAUUACGCAGG were -3.82 ± 0.21 and -2.49 ± 0.13.
The matching figures for GUGCAGCAAUAUUACGCACA: -3.26 ± 0.18 and -1.67 ± 0.12.
For GCACAGCAAUAUUACGUGUG, the “self-splicing fitness (ln)” value is -3.68 ± 0.16 (30 °C) and -2.22 ± 0.14 (37 °C).
Taken in the same sequence, the figures for UACCAGCAAUAUUACGUACU were -2.92 ± 0.17 and -1.4 ± 0.15.
The matching figures for GACGAGCAAUAUUACGUAAC: -3.16 ± 0.23 and -0.414 ± 0.18.
Consider AGGUAGCAAUAUUACGCUUU, for which the “self-splicing fitness (ln)” value runs as follows: (30 °C) -3.041 ± 0.022; (37 °C) -1.76 ± 0.036.
The matching figures for AGGUAGCAAUAUUACGGUCC: -0.156 ± 0.017 and 0.00993 ± 0.035.
Taken in the same sequence, the figures for CUGCAGCAAUAUUACGUAUU were -4.27 ± 0.18 and -3.51 ± 0.19.
On to GAGUAGCAAUAUUACGAAGA, for which the “self-splicing fitness (ln)” value (30 °C) was -2.63 ± 0.3.
On to GUUCAGCAAUAUUACGAAUC, for which the “self-splicing fitness (ln)” value is -3.73 ± 0.24 (30 °C) and -2.29 ± 0.33 (37 °C).
With GAUGAGCAAUAUUACGCUAG, the “self-splicing fitness (ln)” value (37 °C) is -1.33 ± 0.39.
As for CCGAAGCAAUAUUACGAAUA, the “self-splicing fitness (ln)” value was -2.66 ± 0.24 (30 °C) and -2.49 ± 0.21 (37 °C).
Taken in the same sequence, the figures for CUGCAGCAAUAUUACGAGGU were -3.65 ± 0.14 and -3.53 ± 0.2.
The matching figures for GUUGAGCAAUAUUACGGGCG: -2.38 ± 0.18 and -1.58 ± 0.25.
The matching figures for CGCUAGCAAUAUUACGAUAA: -4.27 ± 0.36 and -2.35 ± 0.32.
GGUUAGCAAUAUUACGCUCG: the “self-splicing fitness (ln)” value is, setting by setting: (30 °C) -0.367 ± 0.2; (37 °C) 0.204 ± 0.28.
Taken in the same sequence, the figures for AUGAAGCAAUAUUACGGUCG were 0.0254 ± 0.086 and 0.299 ± 0.1.
Taken in the same sequence, the figures for AUAGAGCAAUAUUACGACAC were -0.57 ± 0.15 and -0.0339 ± 0.2.
On to UAUCAGCAAUAUUACGACUA, for which the “self-splicing fitness (ln)” value (30 °C) was 0.123 ± 0.068 and the “self-splicing fitness (ln)” value (37 °C) was 0.517 ± 0.095.
On to AUAGAGCAAUAUUACGUGCU, for which the “self-splicing fitness (ln)” value (30 °C) is -1.24 ± 0.25.
Regarding UCAAAGCAAUAUUACGGCAU, the “self-splicing fitness (ln)” value was -2.94 ± 0.14 (30 °C) and -2.75 ± 0.14 (37 °C).
With GAGAAGCAAUAUUACGAUGU, the “self-splicing fitness (ln)” value reads like this: (30 °C) -1.12 ± 0.13; (37 °C) -0.819 ± 0.21.
As to CAGAAGCAAUAUUACGCUGC, for the setting “37 °C”, the “self-splicing fitness (ln)” value was -2.34 ± 0.49.
In the case of GCUUAGCAAUAUUACGGGCU, the “self-splicing fitness (ln)” value is, setting by setting: (30 °C) -2.79 ± 0.21; (37 °C) -3.26 ± 0.23.
The matching figures for GACCAGCAAUAUUACGCAUC: -0.629 ± 0.064 and -0.599 ± 0.076.
Taken in the same sequence, the figures for ACGCAGCAAUAUUACGACAU were -0.318 ± 0.011 and 0.305 ± 0.032.
The matching figures for GCCGAGCAAUAUUACGUGAC: -2.14 ± 0.15 and -1.16 ± 0.19.
Consider CAUCAGCAAUAUUACGCCGA, for which the “self-splicing fitness (ln)” value by setting is: (30 °C) -2.57 ± 0.32; (37 °C) -1.79 ± 0.31.
The matching figures for UCGGAGCAAUAUUACGGGCG: -1.37 ± 0.11 and -1.39 ± 0.18.
Taken in the same sequence, the figures for AACGAGCAAUAUUACGUUUG were -3.6 ± 0.2 and -2.45 ± 0.28.
Regarding CAGUAGCAAUAUUACGGCCU, the “self-splicing fitness (ln)” value reads like this: (30 °C) -3.02 ± 0.2; (37 °C) -1.67 ± 0.17.
For the sequence AACUAGCAAUAUUACGCCGC, where the note is “30 °C”, the “self-splicing fitness (ln)” value is -2.1 ± 0.23.
In the case of CUUGAGCAAUAUUACGCGAC, the “self-splicing fitness (ln)” value runs as follows: (30 °C) -3.55 ± 0.28; (37 °C) -0.595 ± 0.16.
With CUUAAGCAAUAUUACGAUGA, the “self-splicing fitness (ln)” value (30 °C) was -3.04 ± 0.43 and the “self-splicing fitness (ln)” value (37 °C) is -0.126 ± 0.22.
For CCAAAGCAAUAUUACGUUGC, the “self-splicing fitness (ln)” value is -3.4 ± 0.15 (30 °C) and -2.12 ± 0.17 (37 °C).
Taken in the same sequence, the figures for CACAAGCAAUAUUACGGAAG were -0.736 ± 0.055 and -0.887 ± 0.072.
Taken in the same sequence, the figures for CACCAGCAAUAUUACGAACU were -3.98 ± 0.2 and -2.05 ± 0.17.
